The values that follow are results of earlier work, collected in article PMC4372107.

In this series the target is U2AF65 RRM123 (Homo sapiens) (UniProt P26368). Nature of the series: ITC. In general terms: In ITC the heat of successive injections is recorded.

“And” between values parts separate entries of the source, which are not always exact repeats. Equal values may be shown once.

Sequence of UniProt P26368 (P26368 148-475, one chain of several): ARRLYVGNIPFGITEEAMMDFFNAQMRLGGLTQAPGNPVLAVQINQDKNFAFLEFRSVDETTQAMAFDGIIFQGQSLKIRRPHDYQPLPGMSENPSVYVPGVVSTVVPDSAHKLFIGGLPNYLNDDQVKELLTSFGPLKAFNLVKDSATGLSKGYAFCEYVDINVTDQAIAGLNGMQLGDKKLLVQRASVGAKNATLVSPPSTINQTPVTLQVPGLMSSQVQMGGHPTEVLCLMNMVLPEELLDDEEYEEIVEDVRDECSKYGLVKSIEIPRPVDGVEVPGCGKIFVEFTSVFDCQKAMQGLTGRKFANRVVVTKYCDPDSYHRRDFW

Broadly, the Kd is the free concentration of one partner at which half of the binding sites on the other are occupied at equilibrium, for simple one-to-one binding. With SF1 (from UniProt Q15637), the Kd was 114 nM and 96 nM.
